Measured values as given in PMC12702776 (2025).

Legend:
[1] = molecular target: T1, RAC1^WT (Ras-related C3 botulinum toxin substrate 1, wild type), purified (human, UniProt P63000 1-192); experiment: mGppNHp-bound RAC1
[2] = molecular target: T2, RAC1^T17N, purified (human, UniProt P63000 1-192, T17N); experiment: mGppNHp-bound RAC1
[3] = molecular target: RAC1^P29S, purified (human, UniProt P63000 1-192, P29S); experiment: mGppNHp-bound RAC1
[4] = molecular target: T3, RAC1^F28L, purified (human, UniProt P63000 1-192, F28L); experiment: mGppNHp-bound RAC1
[5] = molecular target: T1, RAC1^WT (Ras-related C3 botulinum toxin …); experiment: mdGDP-bound RAC1
[6] = molecular target: T2, RAC1^T17N, purified; experiment: mdGDP-bound RAC1
[7] = molecular target: T3, RAC1^F28L, purified; experiment: mdGDP-bound RAC1

B1: His-IQGAP1 C794 (C-terminal 794 amino acids of IQ motif-containing GTPase-activating protein 1) (domain or fragment)
chain: PPMVVVRKFVHLLDQSDQDFQEELDLMKMREEVITLIRSNQQLENDLNLMDIKIGLLVKNKITLQDVVSHSKKLTKKNKEQLSDMMMINKQKGGLKALSKEKREKLEAYQHLFYLLQTNPTYLAKLIFQMPQNKSTKFMDSVIFTLYNYASNQREEYLLLRLFKTALQEEIKSKVDQIQEIVTGNPTVIKMVVSFNRGARGQNALRQILAPVVKEIMDDKSLNIKTDPVDIYKSWVNQMESQTGEASKLPYDVTPEQALAHEEVKTRLDSSIRNMRAVTDKFLSAIVSSVDKIPYGMRFIAKVLKDSLHEKFPDAGEDELLKIIGNLLYYRYMNPAIVAPDAFDIIDLSAGGQLTTDQRRNLGSIAKMLQHAASNKMFLGDNAHLSIINEYLSQSYQKFRRFFQTACDVPELQDKFNVDEYSDLVTLTKPVIYISIGEIINTHTLLLDHQDAIAPEHNDPIHELLDDLGEVPTIESLIGESSGNLNDPNKEALAKTEVSLTLTNKFDVPGDENAEMDARTILLNTKRLIVDVIRFQPGETLTEILETPATSEQEAEHQRAMQRRAIRDAKTPDKMKKSKSVKEDSNLTLQEKKEKIQTGLKKLTELGTVDPKNKYQELINDIARDIRNQRRYRQRRKAELVKLQQTYAALNSKATFYGEQVDYYKSYIKTCLDNLASKGKVSKKPREMKGKKSKKISLKYTAARLHEKGVLLEIEDLQVNQFKNVIFEISPTEEVGDFEVKAKFMGVQMETFMLHYQDLLQLQYEGVAVMKLFDRAKVNVNLLIFLLNKKFYGK
Which koff [1] does the source give for B1 here?
Its koff is 0.404 s⁻¹.

What about the koff [2] of the same binder?
The koff was 0.0142 s⁻¹.

And the koff [3]?
Its koff is 0.138 s⁻¹.

What about the koff [4] of the same binder?
The koff was 0.206 s⁻¹.

B2: GST-GDI1 (guanosine dissociation inhibitor 1, full-length) (natural protein)
chain: MAEQEPTAEQLAQIAAENEEDEHSVNYKPPAQKSIQEIQELDKDDESLRKYKEALLGRVAVSADPNVPNVVVTGLTLVCSSAPGPLELDLTGDLESFKKQSFVLKEGVEYRIKISFRVNREIVSGMKYIQHTYRKGVKIDKTDYMVGSYGPRAEEYEFLTPVEEAPKGMLARGSYSIKSRFTDDDKTDHLSWEWNLTIKKDWKD
Which results are given for B2?
koff [5]: 0.693 s⁻¹; koff [6]: 0.038 s⁻¹; koff [7]: 1.03 s⁻¹
